B1: G001_gp1_V07_VRC01c_92 (antibody, V domains shown)
VH: QVQLVQSGAEVRKPGASVKVSCKASGYTFTDSYMHWVRQAPGQGLEWMGWINPNSGGTNYAQKFQGRVTMTRDTSITTAYMELSRLRFDDTAIYYCATVATIAAPWAFDYWGQGALVTVSS
VL: DIQMTQSPSSLSASVGDRVSITCQASQDINNYLNWYQQKPGKAPKLLIYDVSNLQTGVPSRFSGRGSGTDFTFTISSLQPEDSATYYCQQYERFGQGTKLEIK
B2: G001_gp1_V07_VRC01c_2021-0039 (antibody, V domains shown)
VH: QVQLVQSGAEVKKPGASVRVSCKASGNTFTDYYMHWVRQAPGQGLEWMGWINPNSGGTNYAQKFQGRVTMTRDTSISTAYMELSRLRSDDTAVYYCASPGAAGQPWGFGYWGQGTLVTVSS
VL: DIQMTQSPSSLSASVGDRVTITCQASQDISNYLNWYQQKPGKAPKLLIYDASHLETGVPSRFSGSESGTECTLTISSLQPEDIATYYCQQYEFFGGGTKVEIK
B3: G001_gp1_V07_VRC01c_2021-0048 (antibody, V domains shown)
VH: RVQLVQSGAEVKKPGASVKVSCKASGYTFTGYYMHWVRQAPGQGLEWMGWINPNSGGTNYAQKFQGRVTMTRATSISTAYMELSRLRFDDTAVYYCARGGSRGWSLDYWGQGTLVTVSS
VL: B2 VL with P40L, H53N, E66G, E70D, C71F, T72S, F93T, G96Q, V100L
B4: G001_gp1_V07_VRC01c_2021-0040 (antibody, V domains shown)
VH: QVQLVQSGAEVKKPGASVKVSCKASGYTFTGYYMHWVRQAPGQGLEWMGWINPNSGGSNYAQKFQGRVTMTRDRSITTAYMELSRLRSDDTAVYYCARDHTGTAGWYFDLWGRGTLVTVSS
VL: EIVLTQSPGTLSLSPGERATLSCRASQSVSSSYLAWYHQKPGQAPRLLIYGASSRATGIPDRFSGSGSGTDFTLTISRLEPEDFAVYYCQQYETFGQGTKVEIT
B5: G001_gp1_V07_VRC01c_2021-0044 (antibody, V domains shown)
VH: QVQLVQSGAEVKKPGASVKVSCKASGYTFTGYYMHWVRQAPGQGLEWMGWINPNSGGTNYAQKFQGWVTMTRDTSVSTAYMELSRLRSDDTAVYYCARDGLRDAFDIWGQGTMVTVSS
VL: QSALTQPASVSGPPGQSITISCTGTSSDFGGHNSVSWYQQHPGKAPKLMIYDVSNRPSGVSNRFSGSKSGNTASLTISGLQAEDEADYYCSSYKVFGGGTKLTVL
B6: G001_gp1_V07_VRC01c_97 (antibody, V domains shown)
VH: QVQLVQSGAEVKKPGASVKVSCKASGYSFTDYYMHWVRQAPGQGLEWMGWINPNSGGTNYAQKFQGRVTMTRDTSISTAYMELSRLRSDDTAVYYCASDVEMANRGGWKFDYWGQGTLVTVSS
VL: B5 VL with P13S, F29V, G31S, H32Y, S34L, K44T, D52E, N55K, S91C, K94E
B7: G001_gp1_V07_VRC01c_90 (antibody, V domains shown)
VH: QVQLVQSGAEVKKPGASVKVSCKASGYTFTDYYMHWVRQAPGQGLEWMGWINPNSGGTNYAQKFQGRVTMTRDTSISTAYVVLTRLRSDDTAVYYCATVEWGGSGWNYDYWGQGTLVTVSS
VL: EIVMTQSPATLSVSPGERATLSCRASQSVSSNLAWYQQKPGQAPRLLIYGASTRATGIPARFSGSGSGTEFTLTISSLQSEDFAVYYCQQYETFGQGTKVEIK
B8: G001_gp1_V07_VRC01c_94 (antibody, V domains shown)
VH: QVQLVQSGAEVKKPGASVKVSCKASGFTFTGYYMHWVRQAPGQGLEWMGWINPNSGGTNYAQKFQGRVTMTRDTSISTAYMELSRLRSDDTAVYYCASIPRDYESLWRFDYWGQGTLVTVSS
VL: B7 VL with E92N, K99R, V100L
B9: G001_gp1_V07_VRC01c_91 (antibody, V domains shown)
VH: QVQLVQSGAEVKKPGASVKVSCKASGYTFTDYYIHWVRQAPGQGLEWMGWISPNSGGTNFAQKFQGSVTMTRDTSISTAYMELSRLRSDDTAVYFCARDGGWKRGWGFQFWGQGTLVTVSS
VL: QSALTQPPSASGSPGQSVTISCTGTSSDVGDYKYVSWYQQHPGKAPKLVIYEVSKRPSGVPDRFSGSKSGNTASLTVSGLQAEDEADYYCSSYEVFGGGTKLTVL

Results on nine molecules are retold here after PMC12377726 (Proceedings of the National Academy of Sciences of the …, 2025).

Substitutions are numbered along the chain they refer to.

The test concerns the target eOD-GT8 (engineered outer domain germline-targeting version 8), monomer (HIV-1 gp120 engineered outer domain, …).
For the molecule B1, the binding result is “binds”.
Turning to B2, the binding result is reported as “binds”.
On to B3, for which the binding result is recorded as “binds”.
For B4, the binding result was “binds”.
For the molecule B5, the binding result is recorded as “binds”.
Consider B6, for which the binding result is given as “binds”.
As for B7, the binding result was “binds”.
The same measure for B8: “binds”.
For the molecule B9, the binding result was “binds”.
